Measured values published in patent publication US20230272059A1 (TILLOTTS PHARMA, published 2023).
Read-outs that look alike come from different tables or passages of the source.

Columns and labels:
[1] = target: T1, recombinant human TNFα (human, UniProt P01375 77-233); assay: inhibition ELISA: biotinylated human TNFα pre-incubated with serially diluted scFv, binding of unblocked TNFα to coated TNFRII-Fc detected
T1 construct: also called biotinylated TNFα; TNFαtrimer

[2] = target: T1, recombinant human TNFα; assay: inhibition ELISA, blocking of biotinylated TNFα binding to coated TNFRI-Fc; relative to infliximab
[3] = target: T1, recombinant human TNFα; assay: cell-based or functional assay
[4] = target: Rhesus monkey TNFα (Rhesus monkey (Macaca mulatta), UniProt P48094 77-233); assay: cell-based or functional assay
[5] = target: recombinant Cynomolgus monkey TNFα (Cynomolgus monkey (Macaca fascicularis), UniProt P79337 77-233); assay: cell-based or functional assay
[6] = target: T1, recombinant human TNFα; assay: cell-based or functional assay; remark: listed apart in the source
[7] = target: T1, recombinant human TNFα; assay: inhibition ELISA, blocking of biotinylated TNFα binding to coated TNFRII-Fc
[8] = target: T1, recombinant human TNFα; assay: cell-based or functional assay; remark: listed apart in the source
[9] = target: T1, recombinant human TNFα; assay: inhibition ELISA, blocking of biotinylated TNFα binding to coated TNFRII-Fc; relative to infliximab

T1 sequence (P01375 77-233 limits assumed): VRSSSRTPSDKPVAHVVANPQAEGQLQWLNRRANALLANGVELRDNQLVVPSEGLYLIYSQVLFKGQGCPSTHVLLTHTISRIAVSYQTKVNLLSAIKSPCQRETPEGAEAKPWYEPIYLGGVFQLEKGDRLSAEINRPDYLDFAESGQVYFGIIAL
Rhesus monkey TNFα, sequence (P48094 77-233 limits assumed): as the sequence (P01375 77-233 limits assumed) above, with R44T, T72N, R138L counted along it
recombinant Cynomolgus monkey TNFα, sequence (P79337 77-233 limits assumed): as the sequence (P01375 77-233 limits assumed) above, with L37V, R44T, T72N, R138L counted along it

B1: humanized scFv 16-22-H05-sc02 (scFv)
scFv: MDIQMTQSPSSLSASVGDRVTIKCQASQSIFSGLAWYQQKPGKAPKLLIYGASKLASGVPSRFSGSGSGTEFTLTISGLQPADFATYYCQSYYYSSSSSDGSYAFGGGTKLTVLGGGGGSGGGGSGGGGSGGGGSEVQLVESGGGLVQPGGSLRLSCKASGIDFNNYGIGWVRQAPGKGLEWITYIYPGFAITNFANSVKGRFTISSDNSKNTVYLQMNSLRAEDTAVYYCARDPVYATSSGYFDLWGQGTLVTVSS
notes: also called 16-22-H05-sc02 (STR); structural graft
With B1 the “IC50 (read off the curve)” value [1] was ~20 ng/mL, the “rel. IC50 (IC50 infliximab / IC50 scFv, ng/mL)” value [2] was 3.5 and the “IC50 (read off the curve) (L929 assay, % growth)” value (from here on “IC50 … (L929 assay, % growth)”) [3] was ~0.5 ng/mL. For the same binder, the “IC50 … (L929 assay, % growth)” value [4] was ~3 ng/mL, the “IC50 … (L929 assay, % growth)” value [5] was ~3 ng/mL and the “IC50 … (L929 assay, % growth)” value [6] was ~0.6 ng/mL. The “IC [ng] (head cut off; probably IC50 [ng/mL])” value [7] was 20 ng (head cut off), the “L929 assay, rel. IC50 (IC50 infliximab / IC50 scFv, ng/mL)” value [8] was 13.1 and the “rel. IC50 (IC50 infliximab / IC50 scFv, ng/mL)” value [9] was 5.7.

B2: humanized scFv 16-22-H05-sc04 (scFv)
scFv: MDIQMTQSPSSLSASVGDRVTITCQASQSIFSGLAWYQQKPGKAPKLLIYGASKLASGVPSRFSGSGSGTEFTLTISGLQPADFATYYCQSYYYSSSSSDGSYAFGGGTKLTVLGGGGGSGGGGSGGGGSGGGGSEVQLVESGGGLVQPGGSLRLSCKASGIDFNNYGIGWVRQAPGKGLEWITYIYPGFAITNFANSVKGRFTISSDNSKNTVYLQMNSLRAEDTAVYYCARDPVYATSSGYFDLWGQGTLVTVSS
notes: also called 16-22-H05-sc04 (CDR/STR); domain shuffled variant
With B2 the “IC50 (read off the curve)” value [1] was ~30 ng/mL, the “rel. IC50 (IC50 infliximab / IC50 scFv, ng/mL)” value [2] was 2.8 and the “IC50 … (L929 assay, % growth)” value [3] was ~0.5 ng/mL. For the same binder, the “IC50 … (L929 assay, % growth)” value [4] was ~3 ng/mL, the “IC50 … (L929 assay, % growth)” value [5] was ~3 ng/mL and the “IC50 … (L929 assay, % growth)” value [6] was ~0.6 ng/mL. The “IC [ng] (head cut off; probably IC50 [ng/mL])” value [7] was 32 ng (head cut off), the “L929 assay, rel. IC50 (IC50 infliximab / IC50 scFv, ng/mL)” value [8] was 14.6 and the “rel. IC50 (IC50 infliximab / IC50 scFv, ng/mL)” value [9] was 3.5.
